Data from patent US20030180895A1.

Key:
Test in all cases: cell-based or functional assay
[1] = target: Bacillus subtilis xylanase A mutant R122F (Bacillus subtilis) (UniProt P18429)
[2] = target: Bacillus subtilis xylanase A mutant N17D (Bacillus subtilis) (UniProt P18429)
[3] = target: Bacillus subtilis xylanase A mutant T124D (Bacillus subtilis) (UniProt P18429)
[4] = target: Bacillus subtilis xylanase A mutant G13F (Bacillus subtilis) (UniProt P18429)
[5] = target: Bacillus subtilis xylanase A mutant G34F (Bacillus subtilis) (UniProt P18429)
[6] = target: Bacillus subtilis xylanase A mutant G34D (Bacillus subtilis) (UniProt P18429)
[7] = target: Bacillus subtilis xylanase A mutant N29K (Bacillus subtilis) (UniProt P18429)
[8] = target: Bacillus subtilis xylanase A mutant G120D (Bacillus subtilis) (UniProt P18429)
[9] = target: Bacillus subtilis xylanase A mutant D119K (Bacillus subtilis) (UniProt P18429)
[10] = target: Bacillus subtilis xylanase A mutant T123D (Bacillus subtilis) (UniProt P18429)
[11] = target: Bacillus subtilis xylanase A mutant N17K (Bacillus subtilis) (UniProt P18429)
[12] = target: Bacillus subtilis xylanase A mutant D11F (Bacillus subtilis) (UniProt P18429)
[13] = target: Bacillus subtilis xylanase A mutant G12F (Bacillus subtilis) (UniProt P18429)
[14] = target: Bacillus subtilis xylanase A mutant D119Y (Bacillus subtilis) (UniProt P18429)
[15] = target: Bacillus subtilis xylanase A mutant S31D (Bacillus subtilis) (UniProt P18429)
[16] = target: Bacillus subtilis xylanase A mutant D119N (Bacillus subtilis) (UniProt P18429)
[17] = target: Bacillus subtilis xylanase A mutant Q175S (Bacillus subtilis) (UniProt P18429)
[18] = target: Bacillus subtilis xylanase A mutant Y113K (Bacillus subtilis) (UniProt P18429)
[19] = target: Bacillus subtilis xylanase A mutant T124Y (Bacillus subtilis) (UniProt P18429)
[20] = target: Bacillus subtilis xylanase A mutant D121K (Bacillus subtilis) (UniProt P18429)
[21] = target: Bacillus subtilis xylanase A mutant T124K (Bacillus subtilis) (UniProt P18429)
[22] = target: Bacillus subtilis xylanase A mutant G120F (Bacillus subtilis) (UniProt P18429)
[23] = target: Bacillus subtilis xylanase A mutant N114F (Bacillus subtilis) (UniProt P18429)
[24] = target: Bacillus subtilis xylanase A mutant D11Y (Bacillus subtilis) (UniProt P18429)
[25] = target: Bacillus subtilis xylanase A mutant D11K (Bacillus subtilis) (UniProt P18429)
[26] = target: Bacillus subtilis xylanase A mutant N114A (Bacillus subtilis) (UniProt P18429)
[27] = target: Bacillus subtilis xylanase A mutant D121F (Bacillus subtilis) (UniProt P18429)

Relative inhibition, % at 1, 26 XIU/ml [1]: 93% | Relative inhibition, % at 3, 15 XIU/ml [1]: 74% | Relative inhibition, % at 6, 3 XIU/ml [1]: 58% | Relative inhibition, % at 12, 6 XIU/ml [1]: 58% | Relative inhibition, % at 1, 26 XIU/ml [2]: 90% | Relative inhibition, % at 3, 15 XIU/ml [2]: 81% | Relative inhibition, % at 6, 3 XIU/ml [2]: 50% | Relative inhibition, % at 12, 6 XIU/ml [2]: 22% | Relative inhibition, % at 1, 26 XIU/ml [3]: 87% | Relative inhibition, % at 3, 15 XIU/ml [3]: 52% | Relative inhibition, % at 6, 3 XIU/ml [3]: 32% | Relative inhibition, % at 12, 6 XIU/ml [3]: 25% | Relative inhibition, % at 1, 26 XIU/ml [4]: 104% | Relative inhibition, % at 3, 15 XIU/ml [4]: 95% | Relative inhibition, % at 6, 3 XIU/ml [4]: 87% | Relative inhibition, % at 12, 6 XIU/ml [4]: 84% | Relative inhibition, % at 1, 26 XIU/ml [5]: 76% | Relative inhibition, % at 3, 15 XIU/ml [5]: 53% | Relative inhibition, % at 6, 3 XIU/ml [5]: 34% | Relative inhibition, % at 12, 6 XIU/ml [5]: 29% | Relative inhibition, % at 1, 26 XIU/ml [6]: 94% | Relative inhibition, % at 3, 15 XIU/ml [6]: 83% | Relative inhibition, % at 6, 3 XIU/ml [6]: 70% | Relative inhibition, % at 12, 6 XIU/ml [6]: 53% | Relative inhibition, % at 1, 26 XIU/ml [7]: 83% | Relative inhibition, % at 3, 15 XIU/ml [7]: 50% | Relative inhibition, % at 6, 3 XIU/ml [7]: 30% | Relative inhibition, % at 12, 6 XIU/ml [7]: 23% | Relative inhibition, % at 1, 26 XIU/ml [8]: 84% | Relative inhibition, % at 3, 15 XIU/ml [8]: 47% | Relative inhibition, % at 6, 3 XIU/ml [8]: 24% | Relative inhibition, % at 12, 6 XIU/ml [8]: 18% | Relative inhibition, % at 1, 26 XIU/ml [9]: 94% | Relative inhibition, % at 3, 15 XIU/ml [9]: 67% | Relative inhibition, % at 6, 3 XIU/ml [9]: 40% | Relative inhibition, % at 12, 6 XIU/ml [9]: 26% | Relative inhibition, % at 1, 26 XIU/ml [10]: 83% | Relative inhibition, % at 3, 15 XIU/ml [10]: 36% | Relative inhibition, % at 6, 3 XIU/ml [10]: 20% | Relative inhibition, % at 12, 6 XIU/ml [10]: 17% | Relative inhibition, % at 1, 26 XIU/ml [11]: 88% | Relative inhibition, % at 3, 15 XIU/ml [11]: 48% | Relative inhibition, % at 6, 3 XIU/ml [11]: 31% | Relative inhibition, % at 12, 6 XIU/ml [11]: 26% | Relative inhibition, % at 1, 26 XIU/ml [12]: 114% | Relative inhibition, % at 3, 15 XIU/ml [12]: 119% | Relative inhibition, % at 6, 3 XIU/ml [12]: 116% | Relative inhibition, % at 12, 6 XIU/ml [12]: 115% | Relative inhibition, % at 1, 26 XIU/ml [13]: 110% | Relative inhibition, % at 3, 15 XIU/ml [13]: 106% | Relative inhibition, % at 6, 3 XIU/ml [13]: 100% | Relative inhibition, % at 12, 6 XIU/ml [13]: 92% | Relative inhibition, % at 1, 26 XIU/ml [14]: 87% | Relative inhibition, % at 3, 15 XIU/ml [14]: 50% | Relative inhibition, % at 6, 3 XIU/ml [14]: 28% | Relative inhibition, % at 12, 6 XIU/ml [14]: 22% | Relative inhibition, % at 1, 26 XIU/ml [15]: 79% | Relative inhibition, % at 3, 15 XIU/ml [15]: 52% | Relative inhibition, % at 6, 3 XIU/ml [15]: 30% | Relative inhibition, % at 12, 6 XIU/ml [15]: 24% | Relative inhibition, % at 1, 26 XIU/ml [16]: 91% | Relative inhibition, % at 3, 15 XIU/ml [16]: 74% | Relative inhibition, % at 6, 3 XIU/ml [16]: 44% | Relative inhibition, % at 12, 6 XIU/ml [16]: 22% | Relative inhibition, % at 1, 26 XIU/ml [17]: 88% | Relative inhibition, % at 3, 15 XIU/ml [17]: 59% | Relative inhibition, % at 6, 3 XIU/ml [17]: 30% | Relative inhibition, % at 12, 6 XIU/ml [17]: 19% | Relative inhibition, % at 1, 26 XIU/ml [18]: 103% | Relative inhibition, % at 3, 15 XIU/ml [18]: 85% | Relative inhibition, % at 6, 3 XIU/ml [18]: 63% | Relative inhibition, % at 12, 6 XIU/ml [18]: 47% | Relative inhibition, % at 1, 26 XIU/ml [19]: 101% | Relative inhibition, % at 3, 15 XIU/ml [19]: 76% | Relative inhibition, % at 6, 3 XIU/ml [19]: 49% | Relative inhibition, % at 12, 6 XIU/ml [19]: 33% | Relative inhibition, % at 1, 26 XIU/ml [20]: 104% | Relative inhibition, % at 3, 15 XIU/ml [20]: 95% | Relative inhibition, % at 6, 3 XIU/ml [20]: 85% | Relative inhibition, % at 12, 6 XIU/ml [20]: 75% | Relative inhibition, % at 1, 26 XIU/ml [21]: 110% | Relative inhibition, % at 3, 15 XIU/ml [21]: 92% | Relative inhibition, % at 6, 3 XIU/ml [21]: 73% | Relative inhibition, % at 12, 6 XIU/ml [21]: 57% | Relative inhibition, % at 1, 26 XIU/ml [22]: 71% | Relative inhibition, % at 3, 15 XIU/ml [22]: 35% | Relative inhibition, % at 6, 3 XIU/ml [22]: 18% | Relative inhibition, % at 12, 6 XIU/ml [22]: 15% | Relative inhibition, % at 1, 26 XIU/ml [23]: 84% | Relative inhibition, % at 3, 15 XIU/ml [23]: 54% | Relative inhibition, % at 6, 3 XIU/ml [23]: 39% | Relative inhibition, % at 12, 6 XIU/ml [23]: 34% | Relative inhibition, % at 1, 26 XIU/ml [24]: 120% | Relative inhibition, % at 3, 15 XIU/ml [24]: 114% | Relative inhibition, % at 6, 3 XIU/ml [24]: 126% | Relative inhibition, % at 12, 6 XIU/ml [24]: 124% | Relative inhibition, % at 1, 26 XIU/ml [25]: 109% | Relative inhibition, % at 3, 15 XIU/ml [25]: 112% | Relative inhibition, % at 6, 3 XIU/ml [25]: 113% | Relative inhibition, % at 12, 6 XIU/ml [25]: 116% | Relative inhibition, % at 1, 26 XIU/ml [26]: 80% | Relative inhibition, % at 3, 15 XIU/ml [26]: 49% | Relative inhibition, % at 6, 3 XIU/ml [26]: 28% | Relative inhibition, % at 12, 6 XIU/ml [26]: 22% | Relative inhibition, % at 1, 26 XIU/ml [27]: 101% | Relative inhibition, % at 3, 15 XIU/ml [27]: 89% | Relative inhibition, % at 6, 3 XIU/ml [27]: 72% | Relative inhibition, % at 12, 6 XIU/ml [27]: 60%
Substance: wheat endogenous xylanase inhibitor
